Measurements published in patent publication US20220177569A1 (Novartis, published 2022).
Values belong to the binder of their own block, whether it stands above or below them.

Columns and labels:
Recombinant human IL-18 [1] = target: T1, Recombinant human IL-18 (human, UniProt Q14116 37-193); assay: cell-based or functional assay
Recombinant human IL-18 [2] = target: T1, Recombinant human IL-18; assay: SET (solution equilibrium titration, MSD ECL), individual target binding
Procedure: (§1) The plate was blocked with 50 μl/well blocking buffer (PBS containing 5% BSA) for 1 hour (h), at room temperature (RT). After washing (TBST, TBS containing 0.05% Tween 20), a volume of 30 μl/well of the equilibrated antigen- antibody mix was transferred from the polypropylene MTP to the coated MSD plate and incubated for 20 min at RT. After an additional wash step, 30 μl sulfo tag-labeled anti-IgG detection antibody (0.5 μg/ml) diluted in sample buffer were added to each well and incubated for 30 min at RT on a shaker. The MSD plate was washed and 35 μl/well MSD read buffer were added and incubated for 5 min at RT. Electrochemiluminescence (ECL) signals were generated and measured by the MSD Sector Imager 6000.

[3] = target: T2, Recombinant marmoset IL-18 (marmoset, UniProt U3CWC9 37-190); assay: as above
T2 construct: also called marIL-18
T2 sequence: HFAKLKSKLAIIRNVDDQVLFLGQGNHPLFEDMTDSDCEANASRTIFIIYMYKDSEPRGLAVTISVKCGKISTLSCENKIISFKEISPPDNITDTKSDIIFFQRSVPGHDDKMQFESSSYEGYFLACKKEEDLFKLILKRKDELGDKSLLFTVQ
Procedure: as §1

Recombinant human IL-1β [4] = target: T3, Recombinant human IL-1β (human, UniProt P01584 117-269); assay: SET, simultaneous target binding, Assay B (both targets in serial dilutions in one mix)
T3 construct: also called huIL-1β; IL-1b
Procedure: as §1
(§2) Assay B: The equilibration process (antibody/antigen mix) was performed with both targets in serial dilutions in one mix simultaneously (constant concentration of antibody […], highest antigen conc. see above). The same mix was then analyzed for its free antibody concentration on IL18 and IL-1β coated plates as described above.

Recombinant human IL-18 [5] = target: T1, Recombinant human IL-18; assay: as above
Procedure: as §1, §2

[6] = target: T2, Recombinant marmoset IL-18; assay: as above
Procedure: as §1, §2

[7] = target: T4, Recombinant marmoset IL-1β (marmoset, UniProt U3E018 117-268); assay: as above
T4 construct: also called marIL-1β
Procedure: as §1, §2

Recombinant human IL-18 [8] = target: T1, Recombinant human IL-18; assay: SET, simultaneous target binding, Assay A (excess of the other target, IL-1β)
Procedure: as §1, §2

[9] = target: T2, Recombinant marmoset IL-18; assay: as above
Procedure: as §1, §2

[10] = target: T2, Recombinant marmoset IL-18; assay: cell-based or functional assay
Recombinant human IL-18 [11] = target: T1, Recombinant human IL-18; assay: cell-based or functional assay; remark: listed apart in the source
Recombinant human IL-1β [12] = target: T3, Recombinant human IL-1β; assay: SET, simultaneous target binding, Assay A (excess of the other target, IL-18)
Procedure: as §1, §2

[13] = target: T4, Recombinant marmoset IL-1β; assay: as above
Procedure: as §1, §2

Recombinant human IL-1β [14] = target: T3, Recombinant human IL-1β; assay: cell-based or functional assay
Recombinant human IL-1β [15] = target: T3, Recombinant human IL-1β; assay: cell-based or functional assay; remark: listed apart in the source
Recombinant human IL-1β [16] = target: T3, Recombinant human IL-1β; assay: SET (solution equilibrium titration, MSD ECL), individual target binding
Procedure: as §1

[17] = target: T4, Recombinant marmoset IL-1β; assay: as above
Procedure: as §1

[18] = target: T4, Recombinant marmoset IL-1β; assay: cell-based or functional assay

Inhibition of SEAP in HEK reporter cells stimulated simultaneously with IL-1β and IL-18, IC50; mAb1 alone (Recombinant human IL-18 [1]): > 30000 pM
Inhibition of SEAP in HEK reporter cells stimulated simultaneously with IL-1β and IL-18, IC50; mAb2 and mAb1 combined (Recombinant human IL-18 [1]): 240 pM
Kd (Recombinant human IL-18 [2]): 9 pM
Kd [3]: 21 pM
Kd (Recombinant human IL-18 [5]): 11.4 pM
Kd [6]: 26.3 pM
Kd (Recombinant human IL-18 [8]): 13.5 pM
Kd [9]: 27.1 pM
IFNγ prod. Human PBMC IC50 (marmoset IL-18 1 nM and human IL-12 10 ng/ml) [10]: 6600 pM
IFNγ prod. Marmoset blood IC50 (marmoset IL-18 0.3 nM and human IL-12 10 ng/ml) [10]: 4700 pM
IFNγ prod. Marmoset blood IC50 (marmoset IL-18 3 nM and human IL-12 10 ng/ml) [10]: 181000 pM
IFNγ prod. KG-1 cells IC50 (3 nM recombinant human IL-18 and 1 ng/ml human IL-12) (Recombinant human IL-18 [11]): 35 pM
IFNγ prod. PBMC IC50 (3 nM recombinant human IL-18 and 1 ng/ml human IL-12) (Recombinant human IL-18 [11]): 780 pM
B1: mAb1 (IL-18 antibody) (antibody, human IgG1, lambda, L234A L235A, V domains shown)
VH: EVQLVQSGAEVKKPGSSVKVSCKASGGTFKSYAISWVRQAPGQGLEWMGNIIPMTGQTYYAQKFQGRVTITADESTSTAYMELSSLRSEDTAVYYCARAAYHPLVFDNWGQGTLVTVSS
VL: DIVLTQPPSVSGAPGQRVTISCSGSSSNIGNHYVNWYQQLPGTAPKLLIYRNNHRPSGVPDRFSGSKSGTSASLAITGLQSEDEADYYCQSWDYSGFSTVFGGGTKLTVLG
binding result (Recombinant human IL-1β [4]): no binding (tested: highest antigen conc. huIL-1β 0.5 nM)
binding result [7]: no binding (tested: highest antigen conc. marIL-1β 0.5 nM)

Kd (Recombinant human IL-1β [12]): 1.1 pM
Kd [13]: 0.8 pM
Inhibition of SEAP in HEK reporter cells stimulated simultaneously with IL-1β and IL-18, IC50; mAb2 alone (Recombinant human IL-1β [14]): 30000 pM
Inhibition of SEAP in HEK reporter cells stimulated simultaneously with IL-1β and IL-18, IC50; mAb2 and mAb1 combined (Recombinant human IL-1β [14]): 240 pM
IL-6 prod. PBMC IC50 (human PBMC stimulated with 60 pM recombinant human IL-1β) (Recombinant human IL-1β [15]): 0.29 nM
IL-6 prod. derm. fibrobl. IC50 (human dermal fibroblasts stimulated with 6 pM recombinant human IL-1β) (Recombinant human IL-1β [15]): 31 pM
Kd (Recombinant human IL-1β [16]): 0.6 pM
Kd [17]: 1 pM
Kd (Recombinant human IL-1β [4]): 3.2 pM
Kd [7]: 4.8 pM
IL-6 prod. dermal fibroblasts IC50, Exp. B (18 pM recombinant marmoset IL-1β; marmoset cells by the reading of the header) [18]: 0.138 nM
IL-6 prod. dermal fibroblasts IC50, Exp. C (18 pM recombinant marmoset IL-1β; human cells by the reading of the header) [18]: 0.114 nM
IL-6 prod. marmoset dermal fibroblasts IC50, Exp. A (18 pM recombinant marmoset IL-1β) [18]: 95 pM
B2: mAb2 (IL-1β antibody) (antibody, human IgG1, kappa, V domains shown)
VH: QVQLVESGGGVVQPGRSLRLSCAASGFTFSVYGMNWVRQAPGKGLEWVAIIWYDGDNQYYADSVKGRFTISRDNSKNTLYLQMNGLRAEDTAVYYCARDLRTGPFDYWGQGTLVTVSS
VL: EIVLTQSPDFQSVTPKEKVTITCRASQSIGSSLHWYQQKPDQSPKLLIKYASQSFSGVPSRFSGSGSGTDFTLTINSLEAEDAAAYYCHQSSSLPFTFGPGTKVDIKR
binding result (Recombinant human IL-18 [5]): no binding (tested: highest antigen conc. huIL-18 5 nM)
